Target: ProAgio
Assay: SPR

B1: αVβ3 (receptor)
chain 1: FNLDVDSPAEYSGPEGSYFGFAVDFFVPSASSRMFLLVGAPKANTTQPGIVEGGQVLKCDWSSTRRCQPIEFDATGNRDYAKDDPLEFKSHQWFGASVRSKQDKILACAPLYHWRTEMKQEREPVGTCFLQDGTKTVEYAPCRSQDIDADGQGFCQGGFSIDFTKADRVLLGGPGSFYWQGQLISDQVAEIVSKYDPNVYSIKYNNQLATRTAQAIFDDSYLGYSVAVGDFNGDGIDDFVSGVPRAARTLGMVYIYDGKNMSSLYNFTGEQMAAYFGFSVAATDINGDDYADVFIGAPLFMDRGSDGKLQEVGQVSVSLQRASGDFQTTKLNGFEVFARFGSAIAPLGDLDQDGFNDIAIAAPYGGEDKKGIVYIFNGRSTGLNAVPSQILEGQWAARSMPPSFGYSMKGATDIDKNGYPDLIVGAFGVDRAILYRARPVITVNAGLEVYPSILNQDNKTCSLPGTALKVSCFNVRFCLKADGKGVLPRKLNFQVELLLDKLKQKGAIRRALFLYSRSPSHSKNMTISRGGLMQCEELIAYLRDESEFRDKLTPITIFMEYRLDYRTAADTTGLQPILNQFTPANISRQAHILLDCGEDNVCKPKLEVSVDSDQKKIYIGDDNPLTLIVKAQNQGEGAYEAELIVSIPLQADFIGVVRNNEALARLSCAFKTENQTRQVVCDLGNPMKAGTQLLAGLRFSVHQQSEMDTSVKFDLQIQSSNLFDKVSPVVSHKVDLAVLAAVEIRGVSSPDHVFLPIPNWEHKENPETEEDVGPVVQHIYELRNNGPSSFSKAMLHLQWPYKYNNNTLLYILHYDIDGPMNCTSDMEINPLRIKISSLQTTEKNDTVAGQGERDHLITKRDLALSEGDIHTLGCGVAQCLKIVCQVGRLDRGKSAILYVKSLLWTETFMNKENQNHSYSLKSSASFNVIEFPYKNLPIEDITNSTLVTTNVTWGIQPAPMPV
chain 2: GPNICTTRGVSSCQQCLAVSPMCAWCSDEALPLGSPRCDLKENLLKDNCAPESIEFPVSEARVLEDRPLSDKGSGDSSQVTQVSPQRIALRLRPDDSKNFSIQVRQVEDYPVDIYYLMDLSYSMKDDLWSIQNLGTKLATQMRKLTSNLRIGFGAFVDKPVSPYMYISPPEALENPCYDMKTTCLPMFGYKHVLTLTDQVTRFNEEVKKQSVSRNRDAPEGGFDAIMQATVCDEKIGWRNDASHLLVFTTDAKTHIALDGRLAGIVQPNDGQCHVGSDNHYSASTTMDYPSLGLMTEKLSQKNINLIFAVTENVVNLYQNYSELIPGTTVGVLSMDSSNVLQLIVDAYGKIRSKVELEVRDLPEELSLSFNATCLNNEVIPGLKSCMGLKIGDTVSFSIEAKVRGCPQEKEKSFTIKPVGFKDSLIVQVTFDCDCACQAQAEPNSHRCNNGNGTFECGVCRCGPGWLGSQCECSEEDYRPSQQDECSPREGQPVCSQRGECLCGQCVCHSSDFGKITGKYCECDDFSCVRYKGEMCSGHGQCSCGDCLCDSDWTGYYCNCTTRTDTCMSSNGLLCSGRGKCECGSCVCIQPGSYGDTCEKCPTCPDACTFKKECVECKKFDRGALHDENTCNRYCRDEIESVKELKDTGKDAVNCTYKNEDDCVVRFQYYEDSSGKSILYVVEEPECPKGPD
  Kd: 0.12 nM
